We go through 8 sequences from the supplement of paper PMC11316812.

The test system of one data set is MCF7. The experiment in a line: percentage of EdU-negative (G0-arrested) nuclei per well, 72 h; higher = more G0 arrest. To be noted: reference: sequence is the full UniProt precursor, the tested protein was the secreted form or ectodomain.
Another data set has as its system hTERT-HMEC. The data set is described as above. The note with it: reference: sequence is the full UniProt precursor, the tested protein was the secreted form or ectodomain.
[1] abbreviates: protein concentration 0.0334286 µM.
Where [2] appears, read: protein concentration 0.334286 µM.
The mark [3] stands for this setting: protein concentration 0.019925 µM.
[4] abbreviates: protein concentration 0.19925 µM.
Where [5] appears, read: protein concentration 0.0225 µM.
The mark [6] stands for this setting: protein concentration 0.03125 µM.
The mark [7] stands for this setting: protein concentration 0.3125 µM.
The mark [8] stands for this setting: protein concentration 0.022125 µM.
The mark [9] stands for this setting: protein concentration 0.22125 µM.

± gives the standard deviation of the averaged measurements.
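Also: secreted proteins added to cultured cells, EdU pulse at the end, nuclei found by Hoechst imaging, EdU status from nuclear versus surrounding ring intensity ratio, PBS as neutral control.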

In the case of “MKLDMTGDCTPVLVLMAAVLTVTGAVPVARLHGALPDARGCHIAQFKSLSPQELQAFKRAKDALEESLLLKDCRCHSRLFPRTWDLRQLQVRERPMALEAELALTLKVLEATADTDPALVDVLDQPLHTLHHILSQFRACIQPQPTAGPRTRGRLHHWLYRLQEAPKKESPGCLEASVTFNLFRLLTRDLNCVASGDLCV [Q8IZJ0]”, the “percentage of EdU-negative” value turned out to be 22.9 ± 3.6% with MCF7 (setting [1]), 25.9 ± 4.6% in the data set on MCF7 (setting [2]), 5.29 ± 0.59% with hTERT-HMEC (setting [1]) and 9.88 ± 1.6% in the data set on hTERT-HMEC (setting [2]).

Consider “MAVGKFLLGSLLLLSLQLGQGWGPDARGVPVADGEFSSEQVAKAGGTWLGTHRPLARLRRALSGPCQLWSLTLSVAELGLGYASEEKVIFRYCAGSCPRGARTQHGLALARLQGQGRAHGGPCCRPTRYTDVAFLDDRHRWQRLPQLSAAACGCGG”, for which the “percentage of EdU-negative” value stood at 27.7 ± 0.63% in the data set with MCF7 (setting [3]), 26.7 ± 3.4% in the data set on MCF7 (setting [4]), 5.17 ± 0.068% in the data set with hTERT-HMEC (setting [3]) and 5.42 ± 0.64% in the data set with hTERT-HMEC (setting [4]).

Consider “MAQHHLWILLLCLQTWPEAAGKDSEIFTVNGILGESVTFPVNIQEPRQVKIIAWTSKTSVAYVTPGDSETAPVVTVTHRNYYERIHALGPNYNLVISDLRMEDAGDYKADINTQADPYTTTKRYNLQIYRRLGKPKITQSLMASVNSTCNVTLTCSVEKEEKNVTYNWSPLGEEGNVLQIFQTPEDQELTYTCTAQNPVSNNSDSISARQLCADIAMGFRTHHTGLLSVLAMFFLLVLILSSVFLFRLFKRRQGRIFPEGSCLNTFTKNPYAASKKTIYTYIMASRNTQPAESRIYDEILQSKVLPSKEEPVNTVYSEVQFADKMGKASTQDSKPPGTSSYEIVI [Q9UIB8]”, for which the “percentage of EdU-negative” value in the data set with MCF7 (setting [5]) is 27.3 ± 3%; with MCF7 (protein concentration 0.225 µM), 26.8 ± 1.5%; in the data set on hTERT-HMEC (setting [5]), 4.54 ± 0.35%; with hTERT-HMEC (protein concentration 0.225 µM), 5.92 ± 0.51%.

Regarding “MTLLPGLLFLTWLHTCLAHHDPSLRGHPHSHGTPHCYSAEELPLGQAPPHLLARGAKWGQALPVALVSSLEAASHRGRHERPSATTQCPVLRPEEVLEADTHQRSISPWRYRVDTDEDRYPQKLAFAECLCRGCIDARTGRETAALNSVRLLQSLLVLRRRPCSRDGSGLPTPGAFAFHTEFIHVPVGCTCVLPRSV [Q9P0M4]”, the “percentage of EdU-negative” value in the data set with MCF7 (setting [6]) worked out at 26.7 ± 2.1%; in the data set with MCF7 (setting [7]), 26.1 ± 1.7%; with hTERT-HMEC (setting [6]), 5.54 ± 0.085%; in the data set with hTERT-HMEC (setting [7]) it was 5.3 ± 0.055%.

As to “MAPSSPRPALPALLVLLGALFPGPGNAQTSVSPSKVILPRGGSVLVTCSTSCDQPKLLGIETPLPKKELLLPGNNRKVYELSNVQEDSQPMCYSNCPDGQSTAKTFLTVYWTPERVELAPLPSWQPVGKNLTLRCQVEGGAPRANLTVVLLRGEKELKREPAVGEPAEVTTTVLVRRDHHGANFSCRTELDLRPQGLELFENTSAPYQLQTFVLPATPPQLVSPRVLEVDTQGTVVCSLDGLFPVSEAQVHLALGDQRLNPTVTYGNDSFSAKASVSVTAEDEGTQRLTCAVILGNQSQETLQTVTIYSFPAPNVILTKPEVSEGTEVTVKCEAHPRAKVTLNGVPAQPLGPRAQLLLKATPEDNGRSFSCSATLEVAGQLIHKNQTRELRVLYGPRLDERDCPGNWTWPENSQQTPMCQAWGNPLPELKCLKDGTFPLPIGESVTVTRDLEGTYLCRARSTQGEVTRKVTVNVLSPRYEIVIITVVAAAVIMGTAGLSTYLYNRQRKIKKYRLQQAQKGTPMKPNTQATPP”, the “percentage of EdU-negative” value turned out to be 24.7 ± 1.5% in the data set on MCF7 (setting [6]), 24.2 ± 3.4% in the data set on MCF7 (setting [7]), 5 ± 0.26% in the data set with hTERT-HMEC (setting [6]) and 5.68 ± 0.88% with hTERT-HMEC (setting [7]).

On to “MDMWTALLILQALLLPSLADGATPALRFVAVGDWGGVPNAPFHTAREMANAKEIARTVQILGADFILSLGDNFYFTGVQDINDKRFQETFEDVFSDRSLRKVPWYVLAGNHDHLGNVSAQIAYSKISKRWNFPSPFYRLHFKIPQTNVSVAIFMLDTVTLCGNSDDFLSQQPERPRDVKLARTQLSWLKKQLAAAREDYVLVAGHYPVWSIAEHGPTHCLVKQLRPLLATYGVTAYLCGHDHNLQYLQDENGVGYVLSGAGNFMDPSKRHQRKVPNGYLRFHYGTEDSLGGFAYVEISSKEMTVTYIEASGKSLFKTRLPRRARP”, for which the “percentage of EdU-negative” value amounted to 24.4 ± 1.2% with MCF7 (setting [8]), 28.4 ± 1.4% in the data set on MCF7 (setting [9]), 4.67 ± 0.33% with hTERT-HMEC (setting [8]) and 8.42 ± 0.15% in the data set on hTERT-HMEC (setting [9]).

Regarding “MALRVVRSVRALLCTLRAVPSPAAPCPPRPWQLGVGAVRTLRTGPALLSVRKFTEKHEWVTTENGIGTVGISNFAQEALGDVVYCSLPEVGTKLNKQDEFGALESVKAASELYSPLSGEVTEINEALAENPGLVNKSCYEDGWLIKMTLSNPSELDELMSEEAYEKYIKSIEE”, the “percentage of EdU-negative” value in the data set on MCF7 (setting [5]) is 25.5 ± 2.2%; in the data set with MCF7 (protein concentration 0.225 µM), 26.3 ± 3.4%; in the data set on hTERT-HMEC (setting [5]) it was 4.5 ± 0.0069%; with hTERT-HMEC (protein concentration 0.225 µM) it was 10.4 ± 2.3%.

As for “MNCVCRLVLVVLSLWPDTAVAPGPPPGPPRVSPDPRAELDSTVLLTRSLLADTRQLAAQLRDKFPADGDHNLDSLPTLAMSAGALGALQLPGVLTRLRADLLSYLRHVQWLRRAGGSSLKTLEPELGTLQARLDRLLRRLQLLMSRLALPQPPPDPPAPPLAPPSSAWGGIRAAHAILGGLHLTLDWAVRGLLLLKTRL”, the “percentage of EdU-negative” value in the data set with MCF7 (setting [6]) was 26.7 ± 0.82%; in the data set on MCF7 (setting [7]), 25.4 ± 0.86%; with hTERT-HMEC (setting [6]), 4.51 ± 0.15%; in the data set on hTERT-HMEC (setting [7]), 6.32 ± 0.64%.
